The record followed here is US7074888B1, “Mimotopes and anti-mimotopes of human platelet glycoprotein Ib/IX” (The Research Foundation of State University of New York, priority 1995, dated 2006).

Ends that are not written are not given here.

In one experiment the target is monoclonal antibody C-34. As to the kind of experiment: clone count after phage biopanning on biotinylated C-34.
Experiment [1] has as its target T1, synthetic biotinylated peptide mimotope having SEQ ID NO:1 (not fully specified (N-terminus)).
T1 construct: chemically synthesized (Genosys); also called biotinylated mimotope peptide
T1 peptide: AWNWRYREYV
In words: phage biopanning on biotinylated mimotope peptide SEQ ID NO:1. The procedure:
For studies directed towards discovering a peptide binding the mimotope peptide (SEQ ID NO:1: […]), two rounds of biopanning against the original decapeptide library were performed, using 1 µg of biotinylated mimotope peptide in the first round and 0.01 µg in the second round. Resulting yields were 3 ×10^-6% and 2 ×10^-3%, respectively.

Take WRQREYWDPV [C34 Clone SEQ ID NO:6]: in the experiment with monoclonal antibody C-34, the Frequency is 1.

As for GTWDLWRKGS [anti-mimotope clone SEQ ID NO:169], in experiment [1], the binding result is “binds”.

Consider FVDPGRAGRG [C34 Clone SEQ ID NO:21], for which, in the experiment with monoclonal antibody C-34, the Frequency came out at 1. Take KHFMRHRHGV [anti-mimotope clone SEQ ID NO:96]: the binding result in experiment [1] is recorded as “binds”. With AWNWRYREYV [C34 Clone SEQ ID NO:1], in the experiment with monoclonal antibody C-34, the Frequency was 52.

In turn, FSHSYGSAIR [C34 Clone SEQ ID NO:17] gave a Frequency with monoclonal antibody C-34 of 1. For the molecule KRHAWMKSRL [anti-mimotope clone SEQ ID NO:163], the binding result in experiment [1] was “binds”. Still for that read-out and setting: the entry for WHWLARHRTV [anti-mimotope clone SEQ ID NO:160] is “binds”; for HEGCEAQDEL [anti-mimotope clone SEQ ID NO:167] it is “binds”. Turning to RGWRWHKYWQ [anti-mimotope clone SEQ ID NO:162], the binding result in experiment [1] is “binds”. KWNWRNKKYV [C34 Clone SEQ ID NO:2] returned a Frequency in the experiment with monoclonal antibody C-34 of 1. RRSTWHWWHA [anti-mimotope clone SEQ ID NO:98]: the binding result in experiment [1] is on record as “binds”. Same read-out and setting: with LSCRGCRAFV [anti-mimotope clone SEQ ID NO:166] the entry was “binds”.

KRAWWKQKWV [C34 Clone SEQ ID NO:66] gave a Frequency with monoclonal antibody C-34 of 1. Consider HSPFRHVQPR [anti-mimotope clone SEQ ID NO:171], for which the binding result in experiment [1] is recorded as “binds”. Regarding GGVCKCWQCL [C34 Clone SEQ ID NO:16], in the experiment with monoclonal antibody C-34, the Frequency amounted to 1. Still for that read-out and setting: the figure for GRRVWMLNHG [C34 Clone SEQ ID NO:14] is 2. Still for that read-out and setting: with FKWREWRGKL [C34 Clone SEQ ID NO:11] the figure was 1. Take AGLNHWWKHK [anti-mimotope clone SEQ ID NO:97]: the binding result in experiment [1] is reported as “binds”. With SVRHIWFHVK [anti-mimotope clone SEQ ID NO:168], in experiment [1], the binding result was “binds”.

In turn, LSTWRYFEYV [C34 Clone SEQ ID NO:3] yielded a Frequency in the experiment with monoclonal antibody C-34 of 14. Regarding MSKKPHLGLR [C34 Clone SEQ ID NO:19], the Frequency with monoclonal antibody C-34 was determined as 1. As for RHRHRGFQPR [anti-mimotope clone SEQ ID NO:161], the binding result in experiment [1] was “binds”. Regarding TQMWRAREYL [C34 Clone SEQ ID NO:5], the Frequency with monoclonal antibody C-34 was found to be 2. Consider WVRGHHREVR [anti-mimotope clone SEQ ID NO:172], for which the binding result in experiment [1] was “binds”. PDRQVRLWVR [C34 Clone SEQ ID NO:12] displayed a Frequency with monoclonal antibody C-34 of 1. Consider VAKWRHWNRQ [anti-mimotope clone SEQ ID NO:99], for which, in experiment [1], the binding result is given as “binds”. In turn, YLGWRYSEYV [C34 Clone SEQ ID NO:4] showed a Frequency in the experiment with monoclonal antibody C-34 of 7.

Regarding KKWGQHRQRS [anti-mimotope clone SEQ ID NO:158], in experiment [1], the binding result was “binds”. Turning to AKHRWWRRPV [anti-mimotope clone SEQ ID NO:95], the binding result in experiment [1] was “binds”. In the case of KGFLWRARNW [C34 Clone SEQ ID NO:9], the Frequency with monoclonal antibody C-34 is 1.

In the case of RWLWPRVHKT [anti-mimotope clone SEQ ID NO:170], in experiment [1], the binding result is “binds”. Take KKVWMFSYNE [anti-mimotope clone SEQ ID NO:165]: in experiment [1], the binding result is reported as “binds”. In turn, MHGHRRPGLA [C34 Clone SEQ ID NO:18] registered a Frequency with monoclonal antibody C-34 of 1.

In the experiment with monoclonal antibody C-34, RVLRHWHPRT [C34 Clone SEQ ID NO:13] registered a Frequency of 1.

Turning to MNWKHWRARH [C34 Clone SEQ ID NO:10], the Frequency with monoclonal antibody C-34 was found to be 1. In the case of RHVAWWRQGV [anti-mimotope clone SEQ ID NO:94], the binding result in experiment [1] is “binds”.

Regarding KKGRHHVTRV [C34 Clone SEQ ID NO:15], the Frequency in the experiment with monoclonal antibody C-34 was 22. Same read-out and setting: with GYHWWRNWEY [C34 Clone SEQ ID NO:8] the figure was 2; with EGSWRYRKGG [C34 Clone SEQ ID NO:7], 1. For the molecule WRWMHWMPHA [anti-mimotope clone SEQ ID NO:159], in experiment [1], the binding result is “binds”. In the case of TMWVELYSLK [C34 Clone SEQ ID NO:20], the Frequency with monoclonal antibody C-34 is 1. In the case of LLLVGGSELT [anti-mimotope clone SEQ ID NO:164], the binding result in experiment [1] is “binds”.
